From patent US20220119534A1 (DRAGONFLY THERAPEUTICS, published 2022)

T1: mFc-hNKG2D (human, UniProt P26718 73-216)
T1 construct: extracellular domain; Made in house (Dragonfly Tx); the order of tag and ECD follows the name mFc-hNKG2D; also called mFc-tagged human NKG2D; not shown: mouse Fc tag
T1 sequence (looked up): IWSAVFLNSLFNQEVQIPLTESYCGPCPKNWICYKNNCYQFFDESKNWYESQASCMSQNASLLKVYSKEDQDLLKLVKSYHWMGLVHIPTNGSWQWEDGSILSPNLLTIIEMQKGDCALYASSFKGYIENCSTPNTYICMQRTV

T2: Human CLEC12A-His (human, UniProt Q5QGZ9 65-265)
T2 construct: Recombinant soluble protein made in house (Dragonfly Tx); The hCLEC12A spot of the HuProt array is written under this molecule as well; also called hCLEC12A-His; hCLEC12A; not shown: His tag
T2 sequence: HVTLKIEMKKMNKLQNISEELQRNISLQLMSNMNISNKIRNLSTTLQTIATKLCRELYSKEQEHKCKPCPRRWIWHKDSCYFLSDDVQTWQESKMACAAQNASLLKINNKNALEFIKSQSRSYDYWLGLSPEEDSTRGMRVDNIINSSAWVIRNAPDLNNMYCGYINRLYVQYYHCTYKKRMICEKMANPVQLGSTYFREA

T3: mFc-hNKG2D (recombinant mFc-tagged human NKG2D dimer) (human, UniProt P26718 73-216)
T3 construct: extracellular domain; Made in house; not shown: mouse Fc tag
T3 sequence (looked up): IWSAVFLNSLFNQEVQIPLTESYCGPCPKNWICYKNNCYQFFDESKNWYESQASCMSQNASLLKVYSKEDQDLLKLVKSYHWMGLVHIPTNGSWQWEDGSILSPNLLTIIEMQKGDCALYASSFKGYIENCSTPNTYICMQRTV


Tests used:
mFc-hNKG2D = target: T1, mFc-hNKG2D; test: SPR Biacore 8K 37 C; mFc-hNKG2D captured on anti-mFc chip, TriNKET as analyte; 1:1 kinetic fit; after 4 wks 40 C in phosphate/citrate/NaCl pH 7.8, n=2
Procedure: Association was monitored for 60 seconds and dissociation was monitored for 60 seconds. Surfaces were regenerated between cycles with three pulses of 10 mM glycine-HCl, pH 1.7 injected for 20 seconds at 100 μL/min. HBS-EP+ (1×) buffer was used throughout the experiment. Data were analyzed using Biacore 8K Insight evaluation software (GE Healthcare).

Human CLEC12A-His = target: T2, Human CLEC12A-His; test: SPR Biacore 8K 37 C; TriNKET captured on anti-hFc chip, hCLEC12A-His as analyte; 1:1 fit; pH 5.0 control, n=2
[1] = target: T4, Human CD16a V158 (FcγRIIIa V158) (human, UniProt P08637 17-208, biotinylated); test: SPR; control sample
T4 construct: Bought recombinant receptor; also called hCD16aV; hFcγRIIIa V158

[2] = target: T3, mFc-hNKG2D (recombinant mFc-tagged …); test: SPR; control sample

T4 sequence (P08637 17-208 F176V limits assumed): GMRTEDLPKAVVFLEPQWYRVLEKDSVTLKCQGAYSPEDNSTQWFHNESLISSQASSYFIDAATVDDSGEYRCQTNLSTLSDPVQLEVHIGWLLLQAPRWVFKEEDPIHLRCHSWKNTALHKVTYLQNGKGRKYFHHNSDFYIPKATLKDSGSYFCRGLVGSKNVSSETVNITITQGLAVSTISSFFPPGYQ

Kd (mFc-hNKG2D) [nM]	koff (mFc-hNKG2D) [s⁻¹]	kon (mFc-hNKG2D) [M⁻¹ s⁻¹]	Kd (Human CLEC12A-His) [nM]	koff (Human CLEC12A-His) [s⁻¹]	kon (Human CLEC12A-His) [M⁻¹ s⁻¹]	Kd [1] [nM]	koff [1] [s⁻¹]	kon [1] [M⁻¹ s⁻¹]	Kd [2] [nM]	koff [2] [s⁻¹]	kon [2] [M⁻¹ s⁻¹]	Binder
869	0.133	153000	1.07	0.000853	799000	–	–	–	–	–	–	F3'-1602 TriNKET (bispecific antibody, human IgG1, kappa, Trispecific F3' format: CLEC12A scFv-Fc paired with NKG2D Fab-Fc; Stressed and control samples of the stability studies are the same molecule; also called AB0237) QLQLQESGPGLVKPSETLSLTCTVSGFSLTNYGLHWIRQPPGKCLEWIGVIWSGGKTDYNPSLKSRVTISKDTSKNQFSLKLSSVQAADTAVYYCAKYDYDDSLDYWGQGTLVTVSSGGGGSGGGGSGGGGSGGGGSDIQMTQSPSSLSASVGDRVTITCHASQNINFWLSWYQQKPGKAPKLLIYEASNLHTGVPSRFSGSGSGTRFTLTISSLQPEDIATYYCQQSHSYPLTFGCGTKLEIKGSDKTHTCPPCPAPELLGGPSVFLFPPKPKDTLMISRTPEVTCVVVDVSHEDPEVKFNWYVDGVEVHNAKTKPREEQYNSTYRVVSVLTVLHQDWLNGKEYKCKVSNKALPAPIEKTISKAKGQPREPRVYTLPPCRDELTKNQVSLTCLVKGFYPSDIAVEWESNGQPENNYKTTPPVLVSDGSFTLYSKLTVDKSRWQQGNVFSCSVMHEALHNHYTQKSLSLSPG heavy: EVQLVESGGGLVKPGGSLRLSCAASGFTFSSYSMNWVRQAPGKGLEWVSSISSSSSYIYYADSVKGRFTISRDNAKNSLYLQMNSLRAEDTAVYYCARGAPIGAAAGWFDPWGQGTLVTVSSASTKGPSVFPLAPSSKSTSGGTAALGCLVKDYFPEPVTVSWNSGALTSGVHTFPAVLQSSGLYSLSSVVTVPSSSLGTQTYICNVNHKPSNTKVDKKVEPKSCDKTHTCPPCPAPELLGGPSVFLFPPKPKDTLMISRTPEVTCVVVDVSHEDPEVKFNWYVDGVEVHNAKTKPREEQYNSTYRVVSVLTVLHQDWLNGKEYKCKVSNKALPAPIEKTISKAKGQPREPQVCTLPPSRDELTENQVSLTCLVKGFYPSDIAVEWESNGQPENNYKTTPPVLDSDGSFFLYSWLTVDKSRWQQGNVFSCSVMHEALHNHYTQKSLSLSPG light: DIQMTQSPSSVSASVGDRVTITCRASQGISSWLAWYQQKPGKAPKLLIYAASSLQSGVPSRFSGSGSGTDFTLTISSLQPEDFATYYCQQGVSFPRTFGGGTKVEIKRTVAAPSVFIFPPSDEQLKSGTASVVCLLNNFYPREAKVQWKVDNALQSGNSQESVTEQDSKDSTYSLSSTLTLSKADYEKHKVYACEVTHQGLSSPVTKSFNRGEC
–	–	–	–	–	–	322	0.0278	86400	797	0.135	169000	AB0089 TriNKET (bispecific antibody, human IgG1, kappa, F3' format heterodimer of three chains; human IgG1 Fc with EW-RVT and Y349C/S354C mutations; also called AB0089 Lot AB0089-002; CLEC12A TriNKET AB0089) QLQLQESGPGLVKPSETLSLTCTVSGFSLTNYGLHWIRQPPGKCLEWIGVIWVGGATDYNPSLKSRVTISVDTSKNQFSLKLSSVQAADTAVYYCAKGDYGDTLDYWGQGTLVTVSSGGGGSGGGGSGGGGSGGGGSDIQMTQSPSSLSASVGDRVTITCHASQNINFWLSWYQQKPGKAPKLLIYEASNLHTGVPSRFSGSGSGTDFTLTISSLQPEDFATYYCQQSHSYPLTFGCGTKLEIKGSDKTHTCPPCPAPELLGGPSVFLFPPKPKDTLMISRTPEVTCVVVDVSHEDPEVKFNWYVDGVEVHNAKTKPREEQYNSTYRVVSVLTVLHQDWLNGKEYKCKVSNKALPAPIEKTISKAKGQPREPRVYTLPPCRDELTKNQVSLTCLVKGFYPSDIAVEWESNGQPENNYKTTPPVLVSDGSFTLYSKLTVDKSRWQQGNVFSCSVMHEALHNHYTQKSLSLSPG heavy: EVQLVESGGGLVKPGGSLRLSCAASGFTFSSYSMNWVRQAPGKGLEWVSSISSSSSYIYYADSVKGRFTISRDNAKNSLYLQMNSLRAEDTAVYYCARGAPIGAAAGWFDPWGQGTLVTVSSASTKGPSVFPLAPSSKSTSGGTAALGCLVKDYFPEPVTVSWNSGALTSGVHTFPAVLQSSGLYSLSSVVTVPSSSLGTQTYICNVNHKPSNTKVDKKVEPKSCDKTHTCPPCPAPELLGGPSVFLFPPKPKDTLMISRTPEVTCVVVDVSHEDPEVKFNWYVDGVEVHNAKTKPREEQYNSTYRVVSVLTVLHQDWLNGKEYKCKVSNKALPAPIEKTISKAKGQPREPQVCTLPPSRDELTENQVSLTCLVKGFYPSDIAVEWESNGQPENNYKTTPPVLDSDGSFFLYSWLTVDKSRWQQGNVFSCSVMHEALHNHYTQKSLSLSPG light: DIQMTQSPSSVSASVGDRVTITCRASQGISSWLAWYQQKPGKAPKLLIYAASSLQSGVPSRFSGSGSGTDFTLTISSLQPEDFATYYCQQGVSFPRTFGGGTKVEIKRTVAAPSVFIFPPSDEQLKSGTASVVCLLNNFYPREAKVQWKVDNALQSGNSQESVTEQDSKDSTYSLSSTLTLSKADYEKHKVYACEVTHQGLSSPVTKSFNRGEC
